Results: PMC7949025, “Biophysical characterization of the ETV6 PNT domain polymerization interfaces” (The Journal of Biological Chemistry, 2021)
Numbering of substitutions follows the chain as printed. Numbers in names are those of the source.

T1: biotinylated A93D-PNT domain (ETV6 residues 43-135, A93D, with Avitag) (human, UniProt P41212 43-135, A93D, biotin on the Avitag (~50 to 95% biotinylated))
T1 construct: ETV6, human, residues 43-135; made from the V112E construct by introducing A93D and E112V; also called biotinylated A93D-PNT domain ligand; A93D-PNT domain ligand; source: E. coli BL21 (λDE3) co-transformed with pET21a-BirA, purified (Ni-NTA, thrombin cleavage); not shown: His6, N-terminal, cleaved; Avitag, N-terminal, kept
T1 sequence (looked up): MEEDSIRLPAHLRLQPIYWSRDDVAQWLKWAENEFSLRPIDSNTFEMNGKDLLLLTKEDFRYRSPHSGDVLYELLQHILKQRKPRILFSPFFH

B1: N85A-V112E-PNT domain (domain or fragment, human, UniProt P41212 40-125, looked up)
chain: ALRMEEDSIRLPAHLRLQPIYWSRDDVAQWLKWAENEFSLRPIDSATFEMNGKALLLLTKEDFRYRSPHSGDELYELLQHILKQRK
notes: ETV6 PNT domain, human; source: E. coli BL21 (λDE3), purified (Ni-NTA, thrombin cleavage); not shown: His6, N-terminal, cleaved
B2: N90A-V112E-PNT domain (domain or fragment, human, UniProt P41212 40-125, looked up)
chain: B1 chain with A46N, N51A
notes: ETV6 PNT domain, human; gene purchased commercially (Biomatik); source: E. coli BL21 (λDE3), purified (Ni-NTA, thrombin cleavage); not shown: His6, N-terminal, cleaved
B3: R63A-V112E-PNT domain (domain or fragment, human, UniProt P41212 40-125, looked up)
chain: B1 chain with R24A, A46N
notes: as for B1
B4: Y104A-V112E-PNT domain (domain or fragment, human, UniProt P41212 40-125, looked up)
chain: B1 chain with A46N, Y65A
notes: as for B1
B5: R105A-V112E-PNT domain (domain or fragment, human, UniProt P41212 40-125, looked up)
chain: B1 chain with A46N, R66A
notes: as for B1
B6: T98A-V112E-PNT domain (domain or fragment, human, UniProt P41212 40-125, looked up)
chain: B1 chain with A46N, T59A
notes: as for B1

biological target: T1, biotinylated A93D-PNT domain (ETV6 …); experiment: SPR; biotinylated A93D-PNT domain ligand captured on streptavidin Sensor Chip SA, PNT domain analytes flowed; Biacore X100, 25 °C, HBS-EP+ (10 mM HEPES, 150 mM NaCl, 3 mM EDTA, 0.05% v/v Tween-20, pH 7.4); analyte 0.2-60 nM, re-run at 20-6000 nM if KD > 60 nM; conditions: both partners purified
Outline: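 ETV6 PNT domain (residues 43-135), biotinylated through an Avitag, was diluted to 50 μg/ml in HBS-EP+ and captured on a streptavidin Sensor Chip SA in a Biacore X100 run at 25 °C. PNT domain analytes were passed over the chip at 0.2, 2, 20, 40 and 60 nM, or at 20-6000 nM in repeat runs where binding was weaker. Between cycles the chip was regenerated with 0.2% SDS for 30 s. The Biacore kinetics/affinity software wizard gave the association and dissociation rate constants and the equilibrium dissociation constant.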

Kd	koff	kon	Binder
9.9 nM	0.0034 s⁻¹	350000 M⁻¹ s⁻¹	B1
480 nM	0.037 s⁻¹	78000 M⁻¹ s⁻¹	B2
15 nM	0.0054 s⁻¹	360000 M⁻¹ s⁻¹	B3
21 nM	0.015 s⁻¹	730000 M⁻¹ s⁻¹	B4
2340 nM	0.0054 s⁻¹	2300 M⁻¹ s⁻¹	B5
8.8 nM	0.0054 s⁻¹	620000 M⁻¹ s⁻¹	B6
